Patent US9696316B2, “Conformationally dynamic peptides” (SYSTEM OF SYSTEMS ANALYTICS, INC., priority 2009, dated 2017)
Ends that are not written are not given here. * marks the point of attachment. EDANS = O=S(=O)(O)c1cccc2c(NCCN*)cccc12; FAM = 5(6)carboxyfluorescein

Experiments:
[1] = target: T1, Aβ42 oligomer (Homo sapiens, UniProt P05067); experiment: Aqueous Aβ oligomer assay, pyrene fluorescence; assay type: binding; settings: for reactivity with Aβ42 oligomers (transition from pyrene excimer fluorescence to pyrene self-fluorescence): aqueous assay
T1 sequence (P05067 672-713 limits assumed): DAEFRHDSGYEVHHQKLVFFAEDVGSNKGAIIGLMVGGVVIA
From the text: The conformation of peptide probe bound to the target protein can also be detected by measuring pyrene fluorescence, on the peptide alone and in combination with the target protein. […] The excimer fluorescence associated with the β-sheet conformation has a different wavelength than the monomer fluorescence associated with the alpha-helix conformation, and the excimer:monomer fluorescence ratio is 9:1. […] The addition of Aβ42 oligomer target protein results in a dose-dependent shift of the excimer:monomer fluorescence ratio to 20:1 at the highest Aβ42 oligomer concentration (0.3 μM). This change in excimer:monomer fluorescence ratio reflects a corresponding conformational change in the peptide, that results in increased β-sheet conformation, and decreased α helix conformation.
An Aβ oligomer assay may be conducted in an aqueous solvent, such as water. […] Upon introduction of Aβ oligomer, the fluorescence profile shifts to primarily self-fluorescence (monomeric) (see FIG. 11), which is associated with reduced β-sheet structure, or increased alpha helix structure.
As discussed above, Peptide 22 (SEQ ID NO: 2) undergoes a conformational change upon interaction with Aβ oligomer. FIG. 11 illustrates the fluorescence spectra for Peptide 22 labeled at each terminus with pyrene and incubated in aqueous conditions for several hours at room temperature in 10 mM Hepes (pH 7.0). […] (solid line=Time 0; dashed line=3 hours; dotted line=18 hours).
Peptide 22 (100 nM) is incubated in water for 15 hours at room temperature with equimolar concentrations ([…]) of several potential Aβ substrates: Aβ42 oligomer (type 1); Aβ42 oligomer (type 2); Aβ1-42 monomer; Aβ1-40 monomer; Aβ1-42 fiber; Aβ1-40 fiber; bovine serum albumin (control substrate); and carbonic anhydrase (control substrate).
With reference to FIG. 13A, Peptide 22 (70 nM) is incubated with […] synthetic Aβ42 oligomer at 25 C, and fluorescence emission spectra is recorded after 3 hours incubation. […] (solid line—no Aβ42 oligomer; dashed/dot line—30 nN Aβ42 oligomer; large dashed line—100 nN Aβ42 oligomer; small dashed line—300 nN Aβ42 oligomer)

[2] = target: Aβ oligomer (Homo sapiens, UniProt P05067); experiment: Aβ oligomer assay with FRET-labeled probes; assay type: binding; settings: FAM/EDANS labeled, water (FIG. 10 bottom panel B: increased β-sheet, FRET signal)
Sequence of Aβ oligomer (P05067 672-713 limits assumed): as above
From the text: Alternatively, as illustrated in bottom panel B of FIG. 10, a peptide probe can be labeled at each terminus with members of a FRET pair (e.g. FAM and EDANS).

[3] = Additional work on stability of the β-sheet conformation of variants; assay type: physicochemical; settings: relative to parent sequence
[4] = CD analysis of peptide probe conformation under different pH and salt conditions; assay type: physicochemical
Experimental: As discussed in Example 2, histidine and glutamic acid residue substitutions were introduced into Peptides 22, 38 and 45 (SEQ ID NOs: 2-4) so as to permit the formation salt bridges between those residues. CD analysis can be performed on such peptides under different pH and salt conditions to determine the conformation of the peptide under given conditions.
Peptide 38 (SEQ ID NO:3) labeled at each terminus with a pyrene moiety is used in this example. […] The addition of 500 mM NaCl greatly diminishes the alpha helix conformation in favor of a β-sheet conformation, at both pH levels. Thus, at pH 7, in the presence of 500 mM NaCl (large dashed line), the alpha helix content is 4%, while the fβ-sheet content is 40% (up from 10% without the salt). At pH 4, in the presence of 500 mM NaCl (dashed/dot line), the alpha helix content is 6%, while the β-sheet content is 52% (up from 4% without the salt). […] At greater salt concentrations, the salt bridge is destroyed, and the α helical conformation is no longer stabilized.

[5] = target: T1, Aβ42 oligomer; experiment: CD analysis of peptide probe with target protein; assay type: binding
From the text: The conformation of the peptide probe bound to the target protein can be assessed by CD analysis. […] The peptide alone is highly alpha helical (36%). Upon mixing of Peptide 38 with the target protein, the peptide undergoes a conformation shift that results in increased β-sheet conformation, and decreased α helix conformation. That is, the secondary structure of Peptide 38 is altered such that the proportion of a helix is halved (18%), while the proportion of β-sheet structure is enhanced from 20% to 31%. […] Circular dichroism (CD) analysis is used to determine the secondary structure of Peptide 22, synthetic Aβ42 oligomer, and a mixture thereof. Samples are incubated in 10 mM sodium phosphate (pH 7.0) for 3 hours at room temperature before measuring CD. For each sample, the relative ellipticity is evaluated from 190-260 nm. […] Each data set represents the average of three separate spectral scans.

[6] = mixed with Aβ42 oligomer (FIG. 8)

KLVFFAEDVGSNKRAIIELMK (KLVFFAEDVGSNKRAIIELMK) [Peptide 22 variation 1, Salt bridge at G29R and G33E]
reactivity with Aβ42 oligomers (transition from pyrene excimer fluorescence to pyrene self-fluorescence) [1]: react with Aβ42 oligomers

(FAM)EAA KLVFFAEDEGSRKHAIEGLMEGE(EDANS) ({FAM}-EAAKLVFFAEDEGSRKHAIEGLMEGE(EDANS); not fully specified (C-terminus)) [AD 290, P59, with FAM and EDANS, additional Ala, and solubilizing E residue]
FRET fluorescence behavior upon introduction of Aβ oligomer [2]: fluorescence behavior consistent with this type of conformation change

KLVFFAEDVGDNKHADIELMK (KLVFFAEDVGDNKHADIELMK) [AD327, P22, with point mutation S26D, I31D]
effect of the substitutions on the β-sheet conformation of the probe [3]: destabilize the β-sheet conformation

KLVFFAEDVGSNKHADIELMK (KLVFFAEDVGSNKHADIELMK) [AD330, P22, with point mutation I31D]
effect of the substitutions on the β-sheet conformation of the probe [3]: destabilize the β-sheet conformation

KLVFFAEDVGSNKDAIIELMK (KLVFFAEDVGSNKDAIIELMK) [AD328, P22, with point mutation H29D]
effect of the substitutions on the β-sheet conformation of the probe [3]: destabilize the β-sheet conformation

KLVFFAEDVGSNKGAISGLMK (KLVFFAEDVGSNKGAISGLMK) [Peptide 132S, Wildtype, with I32S point mutation]
effect of the substitutions on the β-sheet conformation of the probe [3]: destabilize the β-sheet conformation

(FAM)HHQ KLVFFAEDEGSRKHAIEGLMEGE(EDANS) ({FAM}-HHQKLVFFAEDEGSRKHAIEGLMEGE(EDANS); not fully specified (C-terminus)) [AD 291, P77, with FAM and EDANS and solubilizing E residue]
FRET fluorescence behavior upon introduction of Aβ oligomer [2]: fluorescence behavior consistent with this type of conformation change

KLVFFAEDVGSNKDADIELMK (KLVFFAEDVGSNKDADIELMK) [AD323, P22, with point mutations H29D and I31D]
effect of the substitutions on the β-sheet conformation of the probe [3]: destabilize the β-sheet conformation

KLVSFAEDVGSNKHAIIELMK (KLVSFAEDVGSNKHAIIELMK) [GM6 variation 1, P22, with point mutation F19S]
effect of the substitutions on the β-sheet conformation of the probe [3]: destabilize the β-sheet conformation

KLVFFAEDVGDNKHAIIELMK (KLVFFAEDVGDNKHAIIELMK) [AD325, P22, with point mutation 526D]
effect of the substitutions on the β-sheet conformation of the probe [3]: destabilize the β-sheet conformation

(FAM)EFR HDSGYEVHHQKLVFFAEDVGSNKGAIIGLME(EDANS) (EFRHDSGYEVHHQKLVFFAEDVGSNKGAIIGLME; not fully specified; FAM and EDANS labels) [AD292, Aβ residues 3-35, with FAM and EDANS and solubilizing E residue]
FRET fluorescence behavior upon introduction of Aβ oligomer [2]: fluorescence behavior consistent with this type of conformation change

KLVSFAEDVGSNKHAIIEPMK (KLVSFAEDVGSNKHAIIEPMK) [GM6, P22, with point mutations F19S, L34P]
effect of the substitutions on the β-sheet conformation of the probe [3]: destabilize the β-sheet conformation

(FAM)KLVFF AEDVG SNKBA IIELM E(EDANS) [AD293]
FRET fluorescence behavior upon introduction of Aβ oligomer [2]: fluorescence behavior consistent with this type of conformation change

KLVFFAEDVGSNKHAIIEDMK (KLVFFAEDVGSNKHAIIEDMK) [AD329, P22, with point mutation L34D]
effect of the substitutions on the β-sheet conformation of the probe [3]: destabilize the β-sheet conformation

KLVFFAEDVGSNKKAIIELMK (KLVFFAEDVGSNKKAIIELMK) [Peptide 22 variation 2, Salt bridge at G29K and G33E]
reactivity with Aβ42 oligomers (transition from pyrene excimer fluorescence to pyrene self-fluorescence) [1]: react with Aβ42 oligomers

KLVFFAEDAAAAKHAIIELMK (KLVFFAEDAAAAKHAIIELMK) [Peptide 38, Salt bridge at G29H and G33E; Ala substitutions to increase alpha-helicity]
alpha helix content (CD) ([4]; pH 4, 500 mM NaCl): 6%
β-sheet content (CD) ([4]; pH 4, 500 mM NaCl): 52%
alpha helix content (CD) ([4]; pH 4, no added salt): 52%
β-sheet content (CD) ([4]; pH 4, without the salt): 4%
alpha helix content (CD) ([4]; pH 7, 500 mM NaCl): 4%
β-sheet content (CD) ([4]; pH 7, 500 mM NaCl): 40%
alpha helix content (CD) ([4]; pH 7, no added salt): 38%
β-sheet content (CD) ([4]; pH 7, without the salt): 10%
proportion of alpha helix (CD) [5, 6]: 18%
proportion of β-sheet structure (CD) [5, 6]: 31%
proportion of alpha helix (CD) ([5]; peptide alone (FIG. 8)): 36%
proportion of β-sheet structure (CD) ([5]; peptide alone (FIG. 8)): 20%
reactivity with Aβ42 oligomers (transition from pyrene excimer fluorescence to pyrene self-fluorescence) [1]: react with Aβ42 oligomers
preferential binding by state of self-aggregation of Aβ protein ([1]; versus monomers, fibers and control proteins): preferentially binds to Aβ protein in the form of soluble Aβ oligomers

KAAA KLVFFAEDVGSNKHAIIELMK (KAAAKLVFFAEDVGSNKHAIIELMK) [Peptide 45, Salt bridge at G29H and G33E; Ala additions to increase alpha-helicity]
reactivity with Aβ42 oligomers (transition from pyrene excimer fluorescence to pyrene self-fluorescence) [1]: react with Aβ42 oligomers
